According to patent US20170204142A1:

Legend:
[1] = target: full-length H1N1 A/Puerto Rico/8/34 recombinant HA (rHA) (influenza A virus H1N1 A/Puerto Rico/8/34) (UniProt P03452)
[2] = target: H1HA10 (influenza A virus H1N1 A/Puerto Rico/8/34) (UniProt A4GCI6)

Row | Substance | Kd [1] [nM] | koff [1] [s⁻¹] | kon [1] [M⁻¹ s⁻¹] | Kd [2] [nM] | koff [2] [s⁻¹] | kon [2] [M⁻¹ s⁻¹]
1 | F10-scFv | 2.9 | 0.00121 | 415000 |  |  | 
2 | CR6261 IgG (antibody) | 8.9 | 0.00258 | 289000 | 315 | 0.00785 | 24900
3 | FI6v3-scFv | 8.8 | 0.00216 | 245000 |  |  | 
